The supplement of paper PMC10567573

B1: IQUB (parent)
chain: EADYEDDSKIAFLMQLQDIQYLTE

Variants of: B1
Experiment: protein stability index of a GFP-peptide fusion (GPS, HEK-293T) (PSI 1-6); higher = more stable
Conditions: c terminus: a fixed tail appended
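Further: lentivirally expressed fusions sorted by FACS into six bins by GFP to DsRed ratio, PSI derived from sequencing read proportions per bin multiplied by bin number.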

Row | Variant | protein stability index
1 | EADYEDDSFIAFLMQLQDIQYLTE | 2.32
2 | EADYEDDSGIAFLMQLQDIQYLTE | 2.81
3 | EADYEDDSHIAFLMQLQDIQYLTE | 3.36
4 | EADYEDDSIIAFLMQLQDIQYLTE | 1.83
5 | EADYEDDSLIAFLMQLQDIQYLTE | 2.58
6 | EADYEDDSMIAFLMQLQDIQYLTE | 2.47
7 | EADYEDDSNIAFLMQLQDIQYLTE | 3.08
8 | EADYEDDSPIAFLMQLQDIQYLTE | 2.9
9 | EADYEDDSQIAFLMQLQDIQYLTE | 3.21
10 | EADYEDDSRIAFLMQLQDIQYLTE | 2.89
11 | EADYEDDSSIAFLMQLQDIQYLTE | 3.06
12 | EADYEDDSTIAFLMQLQDIQYLTE | 2.64
13 | EADYEDDSVIAFLMQLQDIQYLTE | 2.3
14 | EADYEDDSWIAFLMQLQDIQYLTE | 2.61
15 | EADYEDDSYIAFLMQLQDIQYLTE | 2.42
16 | EADYEDDSKAAFLMQLQDIQYLTE | 4
17 | EADYEDDSKCAFLMQLQDIQYLTE | 3.34
18 | EADYEDDSKDAFLMQLQDIQYLTE | 4.35
19 | EADYEDDSKEAFLMQLQDIQYLTE | 4.43
20 | EADYEDDSKFAFLMQLQDIQYLTE | 2.9
21 | EADYEDDSKGAFLMQLQDIQYLTE | 4.13
22 | EADYEDDSKHAFLMQLQDIQYLTE | 4.29
23 | EADYEDDSKKAFLMQLQDIQYLTE | 4.01
24 | EADYEDDSKLAFLMQLQDIQYLTE | 3

Row | Variant | protein stability index
25 | EADYEDDSKMAFLMQLQDIQYLTE | 3.2
26 | EADYEDDSKNAFLMQLQDIQYLTE | 4.17
27 | EADYEDDSKPAFLMQLQDIQYLTE | 4.53
28 | EADYEDDSKQAFLMQLQDIQYLTE | 4.12
29 | EADYEDDSKRAFLMQLQDIQYLTE | 3.82
30 | EADYEDDSKSAFLMQLQDIQYLTE | 3.91
31 | EADYEDDSKTAFLMQLQDIQYLTE | 3.5
32 | EADYEDDSKVAFLMQLQDIQYLTE | 3.42
33 | EADYEDDSKWAFLMQLQDIQYLTE | 3.08
34 | EADYEDDSKYAFLMQLQDIQYLTE | 2.76
35 | EADYEDDSKICFLMQLQDIQYLTE | 2.54
36 | EADYEDDSKIDFLMQLQDIQYLTE | 4.07
37 | EADYEDDSKIEFLMQLQDIQYLTE | 3.39
38 | EADYEDDSKIFFLMQLQDIQYLTE | 2.38
39 | EADYEDDSKIGFLMQLQDIQYLTE | 3.41
40 | EADYEDDSKIHFLMQLQDIQYLTE | 2.97
41 | EADYEDDSKIIFLMQLQDIQYLTE | 1.99
42 | EADYEDDSKIKFLMQLQDIQYLTE | 3.4
43 | EADYEDDSKILFLMQLQDIQYLTE | 2.12
44 | EADYEDDSKIMFLMQLQDIQYLTE | 2.66
45 | EADYEDDSKINFLMQLQDIQYLTE | 3.77
46 | EADYEDDSKIPFLMQLQDIQYLTE | 3.82
47 | EADYEDDSKIQFLMQLQDIQYLTE | 3.49
48 | EADYEDDSKIRFLMQLQDIQYLTE | 2.83

Row | Variant | protein stability index
49 | EADYEDDSKISFLMQLQDIQYLTE | 2.94
50 | EADYEDDSKITFLMQLQDIQYLTE | 3.14
51 | EADYEDDSKIVFLMQLQDIQYLTE | 2.24
52 | EADYEDDSKIWFLMQLQDIQYLTE | 2.78
53 | EADYEDDSKIYFLMQLQDIQYLTE | 2.02
54 | EADYEDDSKIAALMQLQDIQYLTE | 3.89
55 | EADYEDDSKIACLMQLQDIQYLTE | 4.29
56 | EADYEDDSKIADLMQLQDIQYLTE | 5.07
57 | EADYEDDSKIAELMQLQDIQYLTE | 5.06
58 | EADYEDDSKIAGLMQLQDIQYLTE | 4.66
59 | EADYEDDSKIAHLMQLQDIQYLTE | 4.62
60 | EADYEDDSKIAILMQLQDIQYLTE | 3.19
61 | EADYEDDSKIAKLMQLQDIQYLTE | 4.51
62 | EADYEDDSKIALLMQLQDIQYLTE | 2.96
63 | EADYEDDSKIAMLMQLQDIQYLTE | 4.05
64 | EADYEDDSKIANLMQLQDIQYLTE | 4.33
65 | EADYEDDSKIAPLMQLQDIQYLTE | 4.75
66 | EADYEDDSKIAQLMQLQDIQYLTE | 4.78
67 | EADYEDDSKIARLMQLQDIQYLTE | 4.38
68 | EADYEDDSKIASLMQLQDIQYLTE | 4.61
69 | EADYEDDSKIATLMQLQDIQYLTE | 4.94
70 | EADYEDDSKIAVLMQLQDIQYLTE | 3.54
71 | EADYEDDSKIAWLMQLQDIQYLTE | 3.18
72 | EADYEDDSKIAYLMQLQDIQYLTE | 3.73

Row | Variant | protein stability index
73 | EADYEDDSKIAFAMQLQDIQYLTE | 4.02
74 | EADYEDDSKIAFCMQLQDIQYLTE | 3.5
75 | EADYEDDSKIAFDMQLQDIQYLTE | 4.68
76 | EADYEDDSKIAFEMQLQDIQYLTE | 4.54
77 | EADYEDDSKIAFFMQLQDIQYLTE | 2.85
78 | EADYEDDSKIAFGMQLQDIQYLTE | 4.29
79 | EADYEDDSKIAFHMQLQDIQYLTE | 4.15
80 | EADYEDDSKIAFIMQLQDIQYLTE | 2.77
81 | EADYEDDSKIAFKMQLQDIQYLTE | 4.11
82 | EADYEDDSKIAFMMQLQDIQYLTE | 3.26
83 | EADYEDDSKIAFNMQLQDIQYLTE | 4.55
84 | EADYEDDSKIAFPMQLQDIQYLTE | 4.68
85 | EADYEDDSKIAFQMQLQDIQYLTE | 4.34
86 | EADYEDDSKIAFRMQLQDIQYLTE | 3.88
87 | EADYEDDSKIAFSMQLQDIQYLTE | 4.41
88 | EADYEDDSKIAFTMQLQDIQYLTE | 4.3
89 | EADYEDDSKIAFVMQLQDIQYLTE | 3.12
90 | EADYEDDSKIAFWMQLQDIQYLTE | 3.51
91 | EADYEDDSKIAFYMQLQDIQYLTE | 2.84
92 | EADYEDDSKIAFLAQLQDIQYLTE | 3.4
93 | EADYEDDSKIAFLCQLQDIQYLTE | 3.21
94 | EADYEDDSKIAFLDQLQDIQYLTE | 4.27
95 | EADYEDDSKIAFLEQLQDIQYLTE | 4.06
96 | EADYEDDSKIAFLFQLQDIQYLTE | 2.46

Row | Variant | protein stability index
97 | EADYEDDSKIAFLGQLQDIQYLTE | 4.37
98 | EADYEDDSKIAFLHQLQDIQYLTE | 3.96
99 | EADYEDDSKIAFLIQLQDIQYLTE | 2.6
100 | EADYEDDSKIAFLKQLQDIQYLTE | 3.77
101 | EADYEDDSKIAFLLQLQDIQYLTE | 2.32
102 | EADYEDDSKIAFLNQLQDIQYLTE | 4.26
103 | EADYEDDSKIAFLPQLQDIQYLTE | 4.46
104 | EADYEDDSKIAFLQQLQDIQYLTE | 4.23
105 | EADYEDDSKIAFLRQLQDIQYLTE | 3.75
106 | EADYEDDSKIAFLSQLQDIQYLTE | 3.95
107 | EADYEDDSKIAFLTQLQDIQYLTE | 4.04
108 | EADYEDDSKIAFLVQLQDIQYLTE | 2.7
109 | EADYEDDSKIAFLWQLQDIQYLTE | 2.42
110 | EADYEDDSKIAFLYQLQDIQYLTE | 2.92
111 | EADYEDDSKIAFLMALQDIQYLTE | 2.61
112 | EADYEDDSKIAFLMCLQDIQYLTE | 2.09
113 | EADYEDDSKIAFLMDLQDIQYLTE | 3.1
114 | EADYEDDSKIAFLMELQDIQYLTE | 3.36
115 | EADYEDDSKIAFLMFLQDIQYLTE | 1.77
116 | EADYEDDSKIAFLMGLQDIQYLTE | 3.76
117 | EADYEDDSKIAFLMHLQDIQYLTE | 2.44
118 | EADYEDDSKIAFLMILQDIQYLTE | 1.98
119 | EADYEDDSKIAFLMKLQDIQYLTE | 2.9
120 | EADYEDDSKIAFLMLLQDIQYLTE | 2.04

Row | Variant | protein stability index
121 | EADYEDDSKIAFLMMLQDIQYLTE | 2.36
122 | EADYEDDSKIAFLMNLQDIQYLTE | 2.84
123 | EADYEDDSKIAFLMPLQDIQYLTE | 3.39
124 | EADYEDDSKIAFLMRLQDIQYLTE | 2.89
125 | EADYEDDSKIAFLMSLQDIQYLTE | 2.46
126 | EADYEDDSKIAFLMTLQDIQYLTE | 2.19
127 | EADYEDDSKIAFLMVLQDIQYLTE | 1.76
128 | EADYEDDSKIAFLMWLQDIQYLTE | 1.78
129 | EADYEDDSKIAFLMYLQDIQYLTE | 2.09
130 | EADYEDDSKIAFLMQAQDIQYLTE | 4.13
131 | EADYEDDSKIAFLMQCQDIQYLTE | 4.06
132 | EADYEDDSKIAFLMQDQDIQYLTE | 4.58
133 | EADYEDDSKIAFLMQEQDIQYLTE | 3.96
134 | EADYEDDSKIAFLMQFQDIQYLTE | 3.42
135 | EADYEDDSKIAFLMQGQDIQYLTE | 4.76
136 | EADYEDDSKIAFLMQHQDIQYLTE | 4.43
137 | EADYEDDSKIAFLMQIQDIQYLTE | 2.95
138 | EADYEDDSKIAFLMQKQDIQYLTE | 4.53
139 | EADYEDDSKIAFLMQMQDIQYLTE | 3.55
140 | EADYEDDSKIAFLMQNQDIQYLTE | 4.33
141 | EADYEDDSKIAFLMQPQDIQYLTE | 4.37
142 | EADYEDDSKIAFLMQQQDIQYLTE | 4.19
143 | EADYEDDSKIAFLMQRQDIQYLTE | 3.99
144 | EADYEDDSKIAFLMQSQDIQYLTE | 4.26

Row | Variant | protein stability index
145 | EADYEDDSKIAFLMQTQDIQYLTE | 3.75
146 | EADYEDDSKIAFLMQVQDIQYLTE | 3.71
147 | EADYEDDSKIAFLMQWQDIQYLTE | 3.25
148 | EADYEDDSKIAFLMQYQDIQYLTE | 3.64
149 | EADYEDDSKIAFLMQLADIQYLTE | 2.5
150 | EADYEDDSKIAFLMQLCDIQYLTE | 2.25
151 | EADYEDDSKIAFLMQLDDIQYLTE | 3.73
152 | EADYEDDSKIAFLMQLEDIQYLTE | 3.43
153 | EADYEDDSKIAFLMQLFDIQYLTE | 2.68
154 | EADYEDDSKIAFLMQLGDIQYLTE | 3.46
155 | EADYEDDSKIAFLMQLHDIQYLTE | 3.13
156 | EADYEDDSKIAFLMQLIDIQYLTE | 1.76
157 | EADYEDDSKIAFLMQLKDIQYLTE | 2.87
158 | EADYEDDSKIAFLMQLLDIQYLTE | 2.68
159 | EADYEDDSKIAFLMQLMDIQYLTE | 2.17
160 | EADYEDDSKIAFLMQLNDIQYLTE | 3.5
161 | EADYEDDSKIAFLMQLPDIQYLTE | 3.21
162 | EADYEDDSKIAFLMQLRDIQYLTE | 2.57
163 | EADYEDDSKIAFLMQLSDIQYLTE | 2.69
164 | EADYEDDSKIAFLMQLTDIQYLTE | 2.96
165 | EADYEDDSKIAFLMQLVDIQYLTE | 2.67
166 | EADYEDDSKIAFLMQLWDIQYLTE | 2.02
167 | EADYEDDSKIAFLMQLYDIQYLTE | 2.51
168 | EADYEDDSKIAFLMQLQAIQYLTE | 1.74

Row | Variant | protein stability index
169 | EADYEDDSKIAFLMQLQCIQYLTE | 1.84
170 | EADYEDDSKIAFLMQLQEIQYLTE | 2.86
171 | EADYEDDSKIAFLMQLQFIQYLTE | 2.33
172 | EADYEDDSKIAFLMQLQGIQYLTE | 2.92
173 | EADYEDDSKIAFLMQLQHIQYLTE | 2.58
174 | EADYEDDSKIAFLMQLQIIQYLTE | 1.39
175 | EADYEDDSKIAFLMQLQKIQYLTE | 2.65
176 | EADYEDDSKIAFLMQLQLIQYLTE | 1.69
177 | EADYEDDSKIAFLMQLQMIQYLTE | 1.83
178 | EADYEDDSKIAFLMQLQNIQYLTE | 2.58
179 | EADYEDDSKIAFLMQLQPIQYLTE | 2.83
180 | EADYEDDSKIAFLMQLQQIQYLTE | 2.68
181 | EADYEDDSKIAFLMQLQRIQYLTE | 2.32
182 | EADYEDDSKIAFLMQLQSIQYLTE | 2.24
183 | EADYEDDSKIAFLMQLQTIQYLTE | 1.72
184 | EADYEDDSKIAFLMQLQVIQYLTE | 2.22
185 | EADYEDDSKIAFLMQLQWIQYLTE | 2.2
186 | EADYEDDSKIAFLMQLQYIQYLTE | 1.54
187 | EADYEDDSKIAFLMQLQDAQYLTE | 4.17
188 | EADYEDDSKIAFLMQLQDCQYLTE | 3.96
